# Test results published in the supplement of paper PMC9170038.
# System: MS2 coat protein
# Assay: apparent KD of MS2 coat protein; designed switch direction (-1 OFF switch, 1 ON switch): 1; higher = weaker reporter binding
# Method in brief: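 On Illumina chips, designed RNA switches with common flanks were made by stalled E. coli RNA polymerase. Titrations with SNAP-549-labelled MS2 coat protein, doubling from 0.7 or 1.5 nM to 3 µM, were done with no input, with 200 uM small-molecule ligand, or with an oligonucleotide input. Apparent KD is the median per design over clusters, from curve fits of normalised cluster fluorescence.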
# [1] = Eterna round: R95, input ligand: FMN 200 uM
# [2] = Eterna round: R95, input ligand: microRNA oligo, concentration not stated
# [3] = Eterna round: R95, input ligand: none
# [4] = input ligand: microRNA oligo, concentration not stated
sequence,measurement,setting,value
AAAGUACAUGAGGAUCACCCAUGUCCAAAAAAGUAAGGAUAUGUGGUGCGACUACGAAACACAGAAGGUACAAAAA [Malcolm Mod] (puzzle: Same State 1),apparent KD of MS2 coat protein,[1],30.1 nM
same,apparent KD of MS2 coat protein,[2],13.3 nM
same,apparent KD of MS2 coat protein,[3],81.2 nM
GUGCAACCGUGUGAGGAUAUCGGUGGUAAAACAUGAGGAUCACCCAUGUCCGAAGCUCGGACCUCCGAGAAGGCGCACAGUUGCA [Same State 2 - Mod of Erisin v.1] (puzzle: Same State 2),apparent KD of MS2 coat protein,[1],6.82 nM
same,apparent KD of MS2 coat protein,[2],5.46 nM
same,apparent KD of MS2 coat protein,[3],7.08 nM
AUAAGUCCGAUGCUCGUCUCUCCGUACAAACAUGAGGAUCACCCAUGUGAUCGGGAAGUAGCCCGAUCAGUAUGGCC [Erardius] (puzzle: Sensor for hsa-mir-208a),apparent KD of MS2 coat protein,[1],45.5 nM
same,apparent KD of MS2 coat protein,[2],22.6 nM
same,apparent KD of MS2 coat protein,[3],48.3 nM
UAAACUAGUUAUAGUGUAAUGCAUAUUAUACAUGAGGAUCACCCAUGUGAUGGUUGGUAUGAUUUUGUUCGUCUUAA [JR_SHM208A_Sub079] (puzzle: Sensor for hsa-mir-208a),apparent KD of MS2 coat protein,[1],148 nM
same,apparent KD of MS2 coat protein,[2],61.9 nM
same,apparent KD of MS2 coat protein,[3],232 nM
AGUCUACGGUGACGUAGACAGUGGUGCGUACAUGAGGAUCACCCAUGUCAUGUGAGAGUUACUUGUUCGUCUUGAGC [SENSOR #4] (puzzle: Sensor for hsa-mir-208a),apparent KD of MS2 coat protein,[1],20.7 nM
same,apparent KD of MS2 coat protein,[2],21.7 nM
same,apparent KD of MS2 coat protein,[3],22.6 nM
"UCUGCAAGAACAGGAUAUGGGUUCAGAGCGCGAGUGCGCUUUGACACAUGAGGAUCACCCAUGUCCCAGAAGGGUUCAAGCGGC [Cexezadi] (Eterna round: R96, puzzle: Same State NG 2)",apparent KD of MS2 coat protein,input ligand: FMN 200 uM,30 nM
same,apparent KD of MS2 coat protein,[4],321 nM
same,apparent KD of MS2 coat protein,input ligand: none,385 nM
"GUUACAUGAGGAUCACCCAUGUAUGUGUGGGAGUAAGUGUCUUAGGAUAUCUAGUAUGUAAUUUAAGAGAAGGAAGAUUGUUGU [JMF's solution 56] (Eterna round: R96, puzzle: Same State NG 3)",apparent KD of MS2 coat protein,input ligand: FMN 200 uM,217 nM
same,apparent KD of MS2 coat protein,[4],264 nM
same,apparent KD of MS2 coat protein,input ligand: none,261 nM
"GCCGCGUUUCGCGCCUACAUGAGGAUCACCCAUGUUUGUAGGCAGGAUAUCGUUUGCUUUGCAACCGAGAAGGGCUGUUGUGGC [salish99_SSNG3_R04_013] (Eterna round: R96, puzzle: Same State NG 3)",apparent KD of MS2 coat protein,input ligand: FMN 200 uM,51.6 nM
same,apparent KD of MS2 coat protein,[4],38.4 nM
same,apparent KD of MS2 coat protein,input ligand: none,55.5 nM
"GCUCGAUGUGUUGUCUACAUGAGGAUCACCCAUGUAGAUGCGGAGGAUAUCUACGUGCUUUAUGUAGAGAAGGUCGUAUCGAGC [SameState NG3 #85] (Eterna round: R96, puzzle: Same State NG 3)",apparent KD of MS2 coat protein,input ligand: FMN 200 uM,18 nM
same,apparent KD of MS2 coat protein,[4],23.7 nM
same,apparent KD of MS2 coat protein,input ligand: none,34.3 nM
"CUGAAAUGUCAAGGAUAUCACGUCGAUUAGACGUGAGAAGGUGAUCUGCACAUGAGGAUCACCCAUGUGUUACAUGGAAUUCAG [Brourd's SSNG1/1-A2 mod 13] (Eterna round: R96, puzzle: Same State NG 1)",apparent KD of MS2 coat protein,input ligand: FMN 200 uM,166 nM
same,apparent KD of MS2 coat protein,[4],406 nM
same,apparent KD of MS2 coat protein,input ligand: none,503 nM
"GAGUGGCAGUUAGGAUAUAUAGUGAUAAUCACAAUAGAAGGAACUGACAUGAGGAUCACCCAUGUAGGACUAAUCCAGAGAGAG [Parity 40 - Jieux - Same State NG 1] (Eterna round: R96, puzzle: Same State NG 1)",apparent KD of MS2 coat protein,input ligand: FMN 200 uM,56.9 nM
same,apparent KD of MS2 coat protein,[4],21.7 nM
same,apparent KD of MS2 coat protein,input ligand: none,26.8 nM
ACAAGCUUUUUAGGAGAGAAAGGUGGGAUACAUGAGGAUCACCCAUGUAUGGUAGUUAAUAGUGGACCUCGUCUUAU [JR_SHM208A_Sub082] (puzzle: Sensor for hsa-mir-208a),apparent KD of MS2 coat protein,[1],46.5 nM
same,apparent KD of MS2 coat protein,[2],21.7 nM
same,apparent KD of MS2 coat protein,[3],64.1 nM
"UGUUGUAUUACAGGAUAUCUAUUAUUAUUAUUUAGAGAAGGGUAUUCACAUGAGGAUCACCCAUGUAUAUACGAGGAAGUUGUG [JMF's solution 17] (Eterna round: R96, puzzle: Same State NG 1)",apparent KD of MS2 coat protein,[4],33.8 nM
AGUCCAGCCUGAGCUGGACAAAAGCAUGUACAUGAGGAUCACCCAUGUUCAUGUACAAGCUUUUUGCUCGUCUUGAA [salish99_208a_r3_095x] (puzzle: Sensor for hsa-mir-208a),apparent KD of MS2 coat protein,[1],710 nM
same,apparent KD of MS2 coat protein,[2],13.5 nM
same,apparent KD of MS2 coat protein,[3],817 nM
"GUGGUCAGACAUGAGGAUCACCCAUGUGGAAUAAAUAACGGUGAGGAUAUCGAAUAUAGGAUAUACGAGAAGGCAUGAUUGGUG (Eterna round: R96, puzzle: Same State NG 3)",apparent KD of MS2 coat protein,input ligand: FMN 200 uM,165 nM
same,apparent KD of MS2 coat protein,[4],93.3 nM
same,apparent KD of MS2 coat protein,input ligand: none,124 nM
"CGUAGGAUAUGCAGAGGAUCACCCUGUAGAAGGACGAUUACACAGGAUAUGCAGAGGAUCACCCUGUAGAAGGGUGACUAAUCU [pwkr ssNG3 DX 2xF5 +2xFMN.3] (Eterna round: R96, puzzle: Same State NG 3)",apparent KD of MS2 coat protein,input ligand: FMN 200 uM,25.8 nM
same,apparent KD of MS2 coat protein,[4],34.4 nM
same,apparent KD of MS2 coat protein,input ligand: none,55.7 nM
AUUAAACAUGAGGAUCACCCAUGUAUUAUUAUGGGAGGAUAUGCGAAUUUAAUUAAUUAAGCAGAAGGCCUAAUUA [Mat - Same State 1 - D102] (puzzle: Same State 1),apparent KD of MS2 coat protein,[1],18.7 nM
same,apparent KD of MS2 coat protein,[2],98.3 nM
same,apparent KD of MS2 coat protein,[3],141 nM
"AUUUGGUAACGAGGAUAUCGUUUUUGUUUUCUUCGAGAAGGCGUUAUUGUUUAUUUCUAUUGUUACAUGAGGAUCACCCAUGUU [JR_SSNG1_Sub056] (Eterna round: R96, puzzle: Same State NG 1)",apparent KD of MS2 coat protein,input ligand: FMN 200 uM,15.4 nM
same,apparent KD of MS2 coat protein,[4],19 nM
same,apparent KD of MS2 coat protein,input ligand: none,21.7 nM
"GCACCUCGAUGAGGAUAUACAAGCGGAGAUUACAUGAGGAUCACCCAUGUGUGUCGCUUUCGAUGGUAGAAGGCAUACGAGGCA [Eternabot solution 14] (Eterna round: R96, puzzle: Same State NG 2)",apparent KD of MS2 coat protein,input ligand: FMN 200 uM,16.6 nM
same,apparent KD of MS2 coat protein,[4],52.5 nM
same,apparent KD of MS2 coat protein,input ligand: none,59.2 nM
UACCAACAUAUAGAACAAGCGUGCUCGUCACAUGAGGAUCACCCAUGUCUAAGCGCUGAACCUGCAUCCUCAGCGCC [Oniste] (puzzle: Sensor for hsa-mir-208a),apparent KD of MS2 coat protein,[1],78.5 nM
same,apparent KD of MS2 coat protein,[2],26.5 nM
same,apparent KD of MS2 coat protein,[3],85.9 nM
"AGAUCAUGACGAGGAUAUCCGACAUGAGGAUCACCCAUGUAUGUCGGAGGACGCGUACGUCCAAUGGAGAAGGCGUCGUGGUCA [JL SSNG2 1.03] (Eterna round: R96, puzzle: Same State NG 2)",apparent KD of MS2 coat protein,input ligand: FMN 200 uM,18.2 nM
same,apparent KD of MS2 coat protein,[4],73.7 nM
same,apparent KD of MS2 coat protein,input ligand: none,82.5 nM
AGUCCAGCCAAAGCUGGACAAAAGCAUGUACAUGAGGAUCACCCAUGUUCAUGUACAAGCUUUUUGCAAGUCAAAAU [Mat - hsa-mir-208a - Mod of JL - 78] (puzzle: Sensor for hsa-mir-208a),apparent KD of MS2 coat protein,[1],542 nM
same,apparent KD of MS2 coat protein,[2],17.1 nM
same,apparent KD of MS2 coat protein,[3],433 nM
"CCUUAGUACAAUUUAGAUCUACAUGAGGAUCACCCAUGUACUGAGGAUAUCAGCUCGAAUAGAGCUGAGAAGGCAGAAGUACUU [SSNG3/7-A1] (Eterna round: R96, puzzle: Same State NG 3)",apparent KD of MS2 coat protein,input ligand: FMN 200 uM,60.3 nM
same,apparent KD of MS2 coat protein,[4],154 nM
same,apparent KD of MS2 coat protein,input ligand: none,130 nM
"CAGCGCUGUCGAGAGGAUAUGCGGUGAUGGACAUGAGGAUCACCCAUGUUAGCGAUAGCAUUACGGUAGAAGGCUCUACAGCUGC [Soteed] (Eterna round: R96, puzzle: Same State 2)",apparent KD of MS2 coat protein,input ligand: FMN 200 uM,18.7 nM
same,apparent KD of MS2 coat protein,[4],32.1 nM
same,apparent KD of MS2 coat protein,input ligand: none,47.4 nM
"GUUACAUGAGGAUCACCCAUGUAUGUGUGGGAGUAAGUGUCUUAGGAUAUCUAGUAUUUAAUUUUAGAGAAGGAAGAUUGUUGU [JMF's solution 69] (Eterna round: R96, puzzle: Same State NG 3)",apparent KD of MS2 coat protein,input ligand: FMN 200 uM,128 nM
same,apparent KD of MS2 coat protein,[4],121 nM
same,apparent KD of MS2 coat protein,input ligand: none,134 nM
"AAAAGAAACGCAGGAUAUGCACAUGAGGAUCACCCAUGUCCCACAGGCUCGACCGAGCCCGUGAAGCAGAAGGGUGUAAGAAAA [Redibere] (Eterna round: R96, puzzle: Same State NG 2)",apparent KD of MS2 coat protein,input ligand: FMN 200 uM,82.5 nM
same,apparent KD of MS2 coat protein,[4],426 nM
same,apparent KD of MS2 coat protein,input ligand: none,3390 nM
"GUGCUCGUGUAAGGAUAUGCAGCCGUUUCGGCUGCAGAAGGUACUAUAAUACAUGAGGAUCACCCAUGUCUCUAUUGUUUGGUG [salish99_SSNG1_r04_906] (Eterna round: R96, puzzle: Same State NG 1)",apparent KD of MS2 coat protein,[4],76.3 nM
AGUCCAGCCUGAGCUGGACAAAGGCAUGUACAUGAGGAUCACCCAUGUCAUGUACAAGCUUUUUGCUCGUCUUAAUA [Zipper 49 - 1] (puzzle: Sensor for hsa-mir-208a),apparent KD of MS2 coat protein,[1],177 nM
same,apparent KD of MS2 coat protein,[2],15 nM
same,apparent KD of MS2 coat protein,[3],220 nM
"UGGCUGGUGCUAGGAUAUCCAUGAGGAAUCCUCGUAGAAGGAGCACGACAUGAGGAUCACCCAUGUAGCCGUCCGUAGACGGCU [salish99_SSNG1_r04_008] (Eterna round: R96, puzzle: Same State NG 1)",apparent KD of MS2 coat protein,input ligand: FMN 200 uM,287 nM
same,apparent KD of MS2 coat protein,[4],185 nM
same,apparent KD of MS2 coat protein,input ligand: none,240 nM
"GCCAACUAAUGAGGAUAUGGCACCUUAUUGGUGCCAGAAGGCAUGUCAAUUGACAUGAGGAUCACCCAUGUAUUAUAGUUGGCA [Fiskers NG1ss - 33] (Eterna round: R96, puzzle: Same State NG 1)",apparent KD of MS2 coat protein,input ligand: FMN 200 uM,90.4 nM
same,apparent KD of MS2 coat protein,[4],178 nM
same,apparent KD of MS2 coat protein,input ligand: none,405 nM
AAGAAGACGAACAAGGAUAUGUCAAAGGAAACAUGAGGAUCACCCAUGUAGAGAUUGGAAAAGAAACAGAAGGUGUACAGAAAGA [JR_SS2_Sub005] (puzzle: Same State 2),apparent KD of MS2 coat protein,[1],24.8 nM
same,apparent KD of MS2 coat protein,[2],33.3 nM
same,apparent KD of MS2 coat protein,[3],35.1 nM
